Results on 3 substances are retold here after paper PMC6743362.

The assay deals with microtubules (MT fraction from mouse brain) (mouse (endogenous in mouse brain)) (UniProt P68369). Description: co-sedimentation.

Take “recombinant human tau lacking the proline-rich region 2 (ΔPRR2) (from UniProt P10636-6 1-383) (natural protein)”: the MT-bound fraction amounted to 0.839 and the MT-unbound fraction stood at 0.161.
The substance “recombinant human tau lacking both PRR2 and MTBD (ΔPRR2-MTBD) (from UniProt P10636-6 1-383) (natural protein)” came in with an MT-bound fraction of 0.059 and an MT-unbound fraction of 0.941.
Substance “recombinant human tau, 0N4R variant (WT tau) (from UniProt P10636-6 1-383) (natural protein)” showed an MT-bound fraction of 0.989.
